How the values were obtained:
ATF4 = ATF4 (UniProt P18848 1-351); experiment: EMSA; ATF4 alone, up to 90 uM; probe 0.25 nM; EMSA: 10 mM HEPES pH 7.8, 50 mM NaCl, 10 mM MgCl2, 5 mM DTT, protease inhibitor, 0.25 mg/ml BSA, 5 ng/ul poly dIdC, 5% glycerol, ~5 fmol probe in 20 ul; native; details: protein: recombinant; tags: N-terminal His (pET30a); chain copies: 2; label: 32P
C/EBPβ = C/EBPβ (UniProt P17676 1-345); experiment: EMSA; C/EBPβ 100-900 nM; preferred site; probe 0.25 nM; EMSA: 10 mM HEPES pH 7.8, 50 mM NaCl, 10 mM MgCl2, 5 mM DTT, protease inhibitor, 0.25 mg/ml BSA, 5 ng/ul poly dIdC, 5% glycerol, ~5 fmol probe in 20 ul; native; details: protein: recombinant; tags: N-terminal His (pET30a); chain copies: 2; label: 32P
C/EBPβ, sequence (P17676 whole entry): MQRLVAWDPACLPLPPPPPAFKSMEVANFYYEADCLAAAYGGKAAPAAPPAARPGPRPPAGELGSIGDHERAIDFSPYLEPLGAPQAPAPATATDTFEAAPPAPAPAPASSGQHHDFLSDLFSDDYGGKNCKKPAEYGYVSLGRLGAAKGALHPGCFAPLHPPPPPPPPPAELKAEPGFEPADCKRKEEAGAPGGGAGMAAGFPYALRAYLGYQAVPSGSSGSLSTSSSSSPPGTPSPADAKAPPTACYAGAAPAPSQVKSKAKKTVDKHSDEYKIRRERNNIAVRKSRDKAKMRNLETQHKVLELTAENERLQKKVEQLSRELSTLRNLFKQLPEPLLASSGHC

[1] = biological target: C/EBPβ (heterodimer subunit);ATF4 (heterodimer subunit) (human?;human?, UniProt P17676;P18848 1-345;1-351, |); experiment: EMSA; ATF4 added to C/EBPβ; higher affinity than C/EBPβ homodimer; antibodies inhibit heterodimer binding; EMSA: 10 mM HEPES pH 7.8, 50 mM NaCl, 10 mM MgCl2, 5 mM DTT, protease inhibitor, 0.25 mg/ml BSA, 5 ng/ul poly dIdC, 5% glycerol, ~5 fmol probe in 20 ul; native; details: protein: recombinant;recombinant; tags: N-terminal His (pET30a);N-terminal His (pET30a); copies: 1;1; label: 32P
C/EBPβ (heterodimer subunit);ATF4 (heterodimer subunit), sequence (P17676 whole entry, chain 1 of 2): as the sequence (P17676 whole entry) above
C/EBPβ (heterodimer subunit);ATF4 (heterodimer subunit), sequence (P18848 whole entry, chain 2 of 2): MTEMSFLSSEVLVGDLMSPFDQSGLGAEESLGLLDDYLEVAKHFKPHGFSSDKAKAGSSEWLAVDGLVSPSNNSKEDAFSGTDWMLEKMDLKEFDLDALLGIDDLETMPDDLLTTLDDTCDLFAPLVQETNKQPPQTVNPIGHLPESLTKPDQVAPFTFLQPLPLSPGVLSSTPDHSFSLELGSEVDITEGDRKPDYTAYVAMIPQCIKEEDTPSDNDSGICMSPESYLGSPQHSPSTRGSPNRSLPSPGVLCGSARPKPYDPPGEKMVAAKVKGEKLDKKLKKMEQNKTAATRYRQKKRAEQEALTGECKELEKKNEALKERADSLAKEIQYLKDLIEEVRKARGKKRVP

ATF4, sequence (P18848 whole entry): as the sequence (P18848 whole entry, chain 2 of 2) above

Row | Binder | binding result (ATF4) | binding result (C/EBPβ) | binding result [1]
1 | palindromic C/EBP EMSA probe (dsDNA) DNA 1: GAGCAAATATTGCGCAATATAAGTC DNA 2: GGACTTATATTGCGCAATATTTGCT | no binding | binds | –
2 | hybrid (ATF4 motif) EMSA probe (dsDNA) DNA 1: GAGCAAATCTGATGCAATATAAGTC DNA 2: GGACTTATATTGCATCAGATTTGCT | no binding | – | binds
